Experiment [1] concerns the target T1, fluorescein-labeled synthetic NRPS-inducing peptide (NIP) (Streptococcus salivarius K12, fluorescein label). The experiment is described as follows: FP; pH 5.5.
For experiment [2], the target named is T1, fluorescein-labeled synthetic …. Put plainly: FP; pH 7.5.
For experiment [3] the target is unchanged. The experiment is described as follows: FP; pH 5.0.
Experiment [4] shares this target. The experiment is described as follows: FP; pH 5.5. This is another data set of the same source.
For experiment [5] the target is unchanged. Put plainly: FP; pH 6.0.
Experiment [6] has the same target. The experiment is described as follows: FP; pH 6.5.
Experiment [7] has the same target. The experiment is described as follows: FP; pH 7.0.
Experiment [8] has the same target. Put plainly: FP; pH 7.5. The source holds these as a separate data set.

B1: NRPS regulator NrpR (amino acids 1-285), recombinant, untagged (receptor)
chain: GSHMNFGQAIDHLRRQKHFSVKQICGNYLSRQTYYRFVNNEVDISSTKLFYLLNHLNVNVDEFLFICNNFQLEKEFTDMEKIKIYFEKNNIVGLQNLLTSYSSQINVKEKIIYALISSLLGRLTNTSSCTEEKILRDYLINIETWTHYETVLFNNAMFIFDSEFIELIFRKINLNLEKYSTLRYYGNESIRMFINMIILYIDRQDIRRAKEALQIAKNFKINDDCMYEKSCIVFFNEVLNLLNGEISSLKICKSIIKYFNLIGSLSIAAMFESYLDTLIKNNPHITFN
On to B1, for which the Kd came to 6.1 nM in experiment [1]; 20.4 nM in experiment [2]; 18 nM in experiment [3]; 7.5 nM in experiment [4]; 12.2 nM in experiment [5]; 16.2 nM in experiment [6]. The results for the Kd in experiment [7] and in experiment [8] were 18.4 nM and 26 nM, respectively.

By Kd is commonly meant a measure of binding affinity in units of concentration. A lower Kd goes with higher affinity.

The values above are taken from paper PMC12186490 (2025).
